Assays:
Experiment in all cases: holdup assay
Design in all cases: key: below the threshold = too weak to quantify, mostly under pKd 3.1 to 4
[1] = molecular target: RIMS1, Q86UR5
[2] = molecular target: IL16_2, Q14005
[3] = molecular target: T1, SHANK2, Q9UPX8
T1 sequence (Q9UPX8 621-730, limits assumed, looked up): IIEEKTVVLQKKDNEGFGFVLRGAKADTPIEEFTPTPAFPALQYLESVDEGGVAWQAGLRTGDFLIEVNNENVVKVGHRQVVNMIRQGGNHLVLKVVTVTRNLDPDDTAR

[4] = molecular target: MAGI1_4, Q96QZ7
[5] = molecular target: TJP1_1, Q07157
[6] = molecular target: PDZD9, Q8IXQ8
[7] = molecular target: T2, MLLT4, P55196
T2 sequence (P55196 1002-1103, limits assumed, looked up): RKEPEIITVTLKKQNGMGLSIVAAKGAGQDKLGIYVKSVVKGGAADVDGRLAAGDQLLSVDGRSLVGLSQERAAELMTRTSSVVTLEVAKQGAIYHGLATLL

[8] = molecular target: PREX1_1, Q8TCU6
[9] = molecular target: SCRIB_4, Q14160
[10] = molecular target: T3, PDZD4, Q76G19
T3 sequence (Q76G19 125-224, limits assumed, looked up): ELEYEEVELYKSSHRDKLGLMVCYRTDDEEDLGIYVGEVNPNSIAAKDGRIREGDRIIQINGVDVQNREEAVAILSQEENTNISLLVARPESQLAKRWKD

[11] = molecular target: T4, PREX2_2, Q70Z35
T4 sequence (Q70Z35 672-764, limits assumed, looked up): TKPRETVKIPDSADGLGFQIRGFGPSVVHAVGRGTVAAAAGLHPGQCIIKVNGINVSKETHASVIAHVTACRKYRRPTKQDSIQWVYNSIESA

[12] = molecular target: T5, MPP1, Q00013
T5 sequence (Q00013 66-162, limits assumed, looked up): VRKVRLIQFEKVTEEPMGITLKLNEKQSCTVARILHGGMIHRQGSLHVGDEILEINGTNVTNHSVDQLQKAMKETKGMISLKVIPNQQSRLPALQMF

[13] = molecular target: T6, PDZD2_4, O15018
T6 sequence (O15018 723-823, limits assumed, looked up): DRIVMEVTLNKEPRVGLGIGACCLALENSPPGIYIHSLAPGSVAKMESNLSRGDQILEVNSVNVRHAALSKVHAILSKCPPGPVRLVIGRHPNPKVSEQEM

[14] = molecular target: T7, LNX2_4, Q8N448
T7 sequence (Q8N448 595-690, limits assumed, looked up): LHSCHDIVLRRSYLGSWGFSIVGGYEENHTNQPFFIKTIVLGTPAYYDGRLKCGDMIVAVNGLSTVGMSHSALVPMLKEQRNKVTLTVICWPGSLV

[15] = molecular target: T8, SHANK3, Q9BYB0
T8 sequence (Q9BYB0 641-750, limits assumed, looked up): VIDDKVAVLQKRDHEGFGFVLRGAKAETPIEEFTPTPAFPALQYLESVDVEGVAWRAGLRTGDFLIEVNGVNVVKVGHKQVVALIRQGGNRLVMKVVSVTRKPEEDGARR

[16] = molecular target: T9, PARD6B, Q9BYG5
T9 sequence (Q9BYG5 152-260, limits assumed, looked up): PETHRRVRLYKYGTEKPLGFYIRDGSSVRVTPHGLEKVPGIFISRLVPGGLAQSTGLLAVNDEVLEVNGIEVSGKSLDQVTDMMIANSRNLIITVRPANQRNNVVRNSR

[17] = molecular target: T10, MPDZ_6, O75970
T10 sequence (O75970 1003-1099, limits assumed, looked up): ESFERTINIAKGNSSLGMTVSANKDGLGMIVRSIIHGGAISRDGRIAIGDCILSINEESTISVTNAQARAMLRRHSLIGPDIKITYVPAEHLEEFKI

[18] = molecular target: T11, PDZD8, Q8NEN9
T11 sequence (Q8NEN9 361-459, limits assumed, looked up): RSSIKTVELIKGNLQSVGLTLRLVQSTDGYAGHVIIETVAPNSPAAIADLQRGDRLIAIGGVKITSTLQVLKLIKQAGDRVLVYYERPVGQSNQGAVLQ

[19] = molecular target: T12, PTPN4, P29074
T12 sequence (P29074 512-599, limits assumed, looked up): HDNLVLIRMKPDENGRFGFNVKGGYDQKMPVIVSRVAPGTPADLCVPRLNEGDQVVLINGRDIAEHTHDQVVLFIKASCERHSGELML

[20] = molecular target: T13, NHERF1_1, O14745
T13 sequence (O14745 9-104, limits assumed, looked up): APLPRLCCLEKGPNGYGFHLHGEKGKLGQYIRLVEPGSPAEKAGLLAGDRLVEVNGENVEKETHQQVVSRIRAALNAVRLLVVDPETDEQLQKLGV

[21] = molecular target: T14, GRIP1_1, Q9Y3R0
T14 sequence (Q9Y3R0 48-146, limits assumed, looked up): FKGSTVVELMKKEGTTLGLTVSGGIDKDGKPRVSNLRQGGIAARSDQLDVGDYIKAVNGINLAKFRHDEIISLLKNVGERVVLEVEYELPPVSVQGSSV

[22] = molecular target: T15, DVL1, O14640
T15 sequence (O14640 246-333, limits assumed, looked up): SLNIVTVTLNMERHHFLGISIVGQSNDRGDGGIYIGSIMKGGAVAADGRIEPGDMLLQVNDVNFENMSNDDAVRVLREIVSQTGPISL

[23] = plain residues with an end cap or a label only (N-terminal biotin on a linker: none)
[24] = plain residues with an end cap or a label only (N-terminal biotin on a linker: ttds)

RIMS1, Q86UR5, sequence (Q86UR5 584-692): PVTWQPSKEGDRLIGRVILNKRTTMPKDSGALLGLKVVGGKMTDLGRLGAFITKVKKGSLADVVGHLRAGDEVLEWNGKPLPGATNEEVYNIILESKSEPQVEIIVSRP
TJP1_1, Q07157, sequence (Q07157 18-120): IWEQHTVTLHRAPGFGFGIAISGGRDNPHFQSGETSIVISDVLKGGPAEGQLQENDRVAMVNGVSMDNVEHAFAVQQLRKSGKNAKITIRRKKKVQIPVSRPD
SCRIB_4, Q14160, sequence (Q14160 1095-1204): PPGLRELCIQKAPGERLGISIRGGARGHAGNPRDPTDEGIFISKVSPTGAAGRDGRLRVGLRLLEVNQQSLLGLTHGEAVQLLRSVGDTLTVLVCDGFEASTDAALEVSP
PREX1_1, Q8TCU6, sequence (Q8TCU6 608-718): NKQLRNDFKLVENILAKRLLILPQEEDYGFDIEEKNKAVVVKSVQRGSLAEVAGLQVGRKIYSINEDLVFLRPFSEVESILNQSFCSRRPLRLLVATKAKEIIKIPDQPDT
PDZD9, Q8IXQ8, sequence (Q8IXQ8 23-120): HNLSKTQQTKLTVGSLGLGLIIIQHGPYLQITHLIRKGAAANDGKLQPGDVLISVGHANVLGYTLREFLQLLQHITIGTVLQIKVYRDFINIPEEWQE
IL16_2, Q14005, sequence (Q14005 350-450): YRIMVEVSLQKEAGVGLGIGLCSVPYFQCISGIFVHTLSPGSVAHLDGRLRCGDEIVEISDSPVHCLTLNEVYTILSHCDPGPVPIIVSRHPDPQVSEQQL
MAGI1_4, Q96QZ7, sequence (Q96QZ7 other isoform, or with tags, fused parts or gaps): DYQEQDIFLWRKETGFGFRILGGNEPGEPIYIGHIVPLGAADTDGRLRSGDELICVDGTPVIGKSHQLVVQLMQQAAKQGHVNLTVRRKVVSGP

## DSKPPLPPDEWV [MERS-E, K9N5R3]
[1]; [23]
  pKd: 4.38
[2]; [23]
  pKd: below the threshold
[3]; [23]
  pKd: below the threshold
[4]; [23]
  pKd: below the threshold
[5]; [23]
  pKd: below the threshold
[6]; [23]
  pKd: below the threshold
[7]; [23]
  pKd: below the threshold
[8]; [23]
  pKd: below the threshold
[9]; [23]
  pKd: 3.92
[10]; [23]
  pKd: below the threshold
[11]; [23]
  pKd: below the threshold
[12]; [23]
  pKd: below the threshold
[13]; [23]
  pKd: below the threshold
[14]; [23]
  pKd: 3.73
[15]; [23]
  pKd: below the threshold
[16]; [23]
  pKd: below the threshold
[17]; [23]
  pKd: below the threshold
[18]; [23]
  pKd: below the threshold
[19]; [23]
  pKd: below the threshold
[20]; [23]
  pKd: below the threshold
[21]; [23]
  pKd: below the threshold
[22]; [23]
  pKd: below the threshold

## IQREDQETAV [DGKZ, Q13574]
[1]; [24]
  pKd: below the threshold
[2]; [24]
  pKd: below the threshold
[3]; [24]
  pKd: below the threshold
[4]; [24]
  pKd: below the threshold
[5]; [24]
  pKd: below the threshold
[6]; [24]
  pKd: below the threshold
[7]; [24]
  pKd: below the threshold
[8]; [24]
  pKd: below the threshold
[9]; [24]
  pKd: 4.4
[10]; [24]
  pKd: below the threshold
[11]; [24]
  pKd: below the threshold
[12]; [24]
  pKd: below the threshold
[13]; [24]
  pKd: below the threshold
[14]; [24]
  pKd: below the threshold
[15]; [24]
  pKd: below the threshold
[16]; [24]
  pKd: below the threshold
[17]; [24]
  pKd: below the threshold
[18]; [24]
  pKd: below the threshold
[19]; [24]
  pKd: 4.8
[20]; [24]
  pKd: below the threshold
[21]; [24]
  pKd: below the threshold
[22]; [24]
  pKd: below the threshold

## MERLRVETDV [ARHGEF16, Q5VV41]
[1]; [24]
  pKd: below the threshold
[2]; [24]
  pKd: below the threshold
[3]; [24]
  pKd: below the threshold
[4]; [24]
  pKd: below the threshold
[5]; [24]
  pKd: below the threshold
[6]; [24]
  pKd: below the threshold
[7]; [24]
  pKd: below the threshold
[8]; [24]
  pKd: below the threshold
[9]; [24]
  pKd: below the threshold
[10]; [24]
  pKd: below the threshold
[11]; [24]
  pKd: 4.17
[12]; [24]
  pKd: 4.56
[13]; [24]
  pKd: below the threshold
[14]; [24]
  pKd: below the threshold
[15]; [24]
  pKd: below the threshold
[16]; [24]
  pKd: below the threshold
[17]; [24]
  pKd: below the threshold
[18]; [24]
  pKd: below the threshold
[19]; [24]
  pKd: 4.25
[20]; [24]
  pKd: below the threshold
[21]; [24]
  pKd: below the threshold
[22]; [24]
  pKd: below the threshold

From article PMC9482650, “Quantitative fragmentomics allow affinity mapping of interactomes” (Nature Communications, 2022)
